Test system: mutant form of α-Gal A expressed in HEK-293 cells
Test: HEK assay (GLP HEK / Migalastat Amenability Assay): α-Gal A activity in lysates of transiently transfected HEK-293 cells incubated with or without 10 μM migalastat
Assay type: cell-based, human
Details: for Absolute increase (% WT): 10 μM migalastat versus baseline; for Relative increase: 10 μM migalastat α-Gal A activity relative to baseline; for 10 μM migalastat α-Gal A activity (% WT): 5 days; for 10 μM migalastat α-Gal A activity (% WT) / Baseline α-Gal A activity (% WT): percentage of baseline wild-type α-Gal A activity; for 10 μM migalastat α-Gal A activity (% WT) / Baseline α-Gal A activity (% WT) / Baseline α-Gal A activity / 10 μM migalastat α-Gal A activity: mean ± SEM; for Baseline α-Gal A activity / 10 μM migalastat α-Gal A activity: lysates of HEK-293 cells transfected with the mutant form; for Baseline α-Gal A activity: incubated 5 days in the absence of migalastat; for 10 μM migalastat α-Gal A activity: incubated 5 days with 10 μM migalastat
How it was run: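 Activity reported as 4-MU released (nmol/mg/hr), mean±SEM, from lysates of transiently transfected HEK-293 cells expressing mutant α-Gal A, cultured with or without 10 μM migalastat.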

Row | Molecule | Absolute increase (% WT) | Relative increase | 10 μM migalastat α-Gal A activity (% WT) | Baseline α-Gal A activity (% WT) (absence of migalastat) | Baseline α-Gal A activity [nmol/mg/h] | 10 μM migalastat α-Gal A activity [nmol/mg/h] | Baseline α-Gal A activity (nmol/mg/hr) (absence of migalastat, mean activity below the limit of detection (<142 nmol/mg/hr))
1 | P146H (protein) MQLRNPELHLGCALALRFLALVSWDIPGARALDNGLARTPTMGWLHWERFMCNLDCQEEPDSCISEKLFMEMAELMVSEGWKDAGYEYLCIDDCWMAPQRDSEGRLQADPQRFPHGIRQLANYVHSKGLKLGIYADVGNKTCAGFHGSFGYYDIDAQTFADWGVDLLKFDGCYCDSLENLADGYKHMSLALNRTGRSIVYSCEWPLYMWPFQKPNYTEIRQYCNHWRNFADIDDSWKSIKSILDWTSFNQERIVDVAGPGGWNDPDMLVIGNFGLSWNQQVTQMALWAIMAAPLFMSNDLRHISPQAKALLQDKDVIAINQDPLGKQGYQLRQGDNFEVWERPLSGLAWAVAMINRQEIGGPRSYTIAVASLGKGVACNPACFITQLLPVKRKLGFYEWTSRLRSHINPTGTVLLQLENTMQMSLKDLL | 21.8 | 3.7 | 30.2 ± 2.1 | 8.5 ± 0.7 | 3220 ± 211 | 11903 ± 844 | 
2 | F149C (protein) MQLRNPELHLGCALALRFLALVSWDIPGARALDNGLARTPTMGWLHWERFMCNLDCQEEPDSCISEKLFMEMAELMVSEGWKDAGYEYLCIDDCWMAPQRDSEGRLQADPQRFPHGIRQLANYVHSKGLKLGIYADVGNKTCAGFPGSCGYYDIDAQTFADWGVDLLKFDGCYCDSLENLADGYKHMSLALNRTGRSIVYSCEWPLYMWPFQKPNYTEIRQYCNHWRNFADIDDSWKSIKSILDWTSFNQERIVDVAGPGGWNDPDMLVIGNFGLSWNQQVTQMALWAIMAAPLFMSNDLRHISPQAKALLQDKDVIAINQDPLGKQGYQLRQGDNFEVWERPLSGLAWAVAMINRQEIGGPRSYTIAVASLGKGVACNPACFITQLLPVKRKLGFYEWTSRLRSHINPTGTVLLQLENTMQMSLKDLL | 13.9 | 1.3 | 60.9 ± 6.4 | 47 ± 4.4 | 15198 ± 1188 | 19032 ± 1272 | 
3 | P146L (protein) MQLRNPELHLGCALALRFLALVSWDIPGARALDNGLARTPTMGWLHWERFMCNLDCQEEPDSCISEKLFMEMAELMVSEGWKDAGYEYLCIDDCWMAPQRDSEGRLQADPQRFPHGIRQLANYVHSKGLKLGIYADVGNKTCAGFLGSFGYYDIDAQTFADWGVDLLKFDGCYCDSLENLADGYKHMSLALNRTGRSIVYSCEWPLYMWPFQKPNYTEIRQYCNHWRNFADIDDSWKSIKSILDWTSFNQERIVDVAGPGGWNDPDMLVIGNFGLSWNQQVTQMALWAIMAAPLFMSNDLRHISPQAKALLQDKDVIAINQDPLGKQGYQLRQGDNFEVWERPLSGLAWAVAMINRQEIGGPRSYTIAVASLGKGVACNPACFITQLLPVKRKLGFYEWTSRLRSHINPTGTVLLQLENTMQMSLKDLL | 12.4 | 1.5 | 37.1 ± 2.2 | 24.7 ± 1.8 | 9940 ± 899 | 14540 ± 903 | 
4 | S148T (protein) MQLRNPELHLGCALALRFLALVSWDIPGARALDNGLARTPTMGWLHWERFMCNLDCQEEPDSCISEKLFMEMAELMVSEGWKDAGYEYLCIDDCWMAPQRDSEGRLQADPQRFPHGIRQLANYVHSKGLKLGIYADVGNKTCAGFPGTFGYYDIDAQTFADWGVDLLKFDGCYCDSLENLADGYKHMSLALNRTGRSIVYSCEWPLYMWPFQKPNYTEIRQYCNHWRNFADIDDSWKSIKSILDWTSFNQERIVDVAGPGGWNDPDMLVIGNFGLSWNQQVTQMALWAIMAAPLFMSNDLRHISPQAKALLQDKDVIAINQDPLGKQGYQLRQGDNFEVWERPLSGLAWAVAMINRQEIGGPRSYTIAVASLGKGVACNPACFITQLLPVKRKLGFYEWTSRLRSHINPTGTVLLQLENTMQMSLKDLL | 15.9 | 1.2 | 82.4 ± 3.7 | 66.5 ± 3.8 | 24827 ± 1221 | 30620 ± 813 | 
5 | S148C (protein) MQLRNPELHLGCALALRFLALVSWDIPGARALDNGLARTPTMGWLHWERFMCNLDCQEEPDSCISEKLFMEMAELMVSEGWKDAGYEYLCIDDCWMAPQRDSEGRLQADPQRFPHGIRQLANYVHSKGLKLGIYADVGNKTCAGFPGCFGYYDIDAQTFADWGVDLLKFDGCYCDSLENLADGYKHMSLALNRTGRSIVYSCEWPLYMWPFQKPNYTEIRQYCNHWRNFADIDDSWKSIKSILDWTSFNQERIVDVAGPGGWNDPDMLVIGNFGLSWNQQVTQMALWAIMAAPLFMSNDLRHISPQAKALLQDKDVIAINQDPLGKQGYQLRQGDNFEVWERPLSGLAWAVAMINRQEIGGPRSYTIAVASLGKGVACNPACFITQLLPVKRKLGFYEWTSRLRSHINPTGTVLLQLENTMQMSLKDLL | 19.3 | 1.6 | 49.5 ± 2 | 30.2 ± 2.2 | 11927 ± 1020 | 19343 ± 919 | 
6 | P146T (protein) MQLRNPELHLGCALALRFLALVSWDIPGARALDNGLARTPTMGWLHWERFMCNLDCQEEPDSCISEKLFMEMAELMVSEGWKDAGYEYLCIDDCWMAPQRDSEGRLQADPQRFPHGIRQLANYVHSKGLKLGIYADVGNKTCAGFTGSFGYYDIDAQTFADWGVDLLKFDGCYCDSLENLADGYKHMSLALNRTGRSIVYSCEWPLYMWPFQKPNYTEIRQYCNHWRNFADIDDSWKSIKSILDWTSFNQERIVDVAGPGGWNDPDMLVIGNFGLSWNQQVTQMALWAIMAAPLFMSNDLRHISPQAKALLQDKDVIAINQDPLGKQGYQLRQGDNFEVWERPLSGLAWAVAMINRQEIGGPRSYTIAVASLGKGVACNPACFITQLLPVKRKLGFYEWTSRLRSHINPTGTVLLQLENTMQMSLKDLL | 25.0 | 1.8 | 58.6 ± 2.4 | 33.6 ± 1.5 | 13711 ± 1154 | 24123 ± 2081 | 
7 | G147A (protein) MQLRNPELHLGCALALRFLALVSWDIPGARALDNGLARTPTMGWLHWERFMCNLDCQEEPDSCISEKLFMEMAELMVSEGWKDAGYEYLCIDDCWMAPQRDSEGRLQADPQRFPHGIRQLANYVHSKGLKLGIYADVGNKTCAGFPASFGYYDIDAQTFADWGVDLLKFDGCYCDSLENLADGYKHMSLALNRTGRSIVYSCEWPLYMWPFQKPNYTEIRQYCNHWRNFADIDDSWKSIKSILDWTSFNQERIVDVAGPGGWNDPDMLVIGNFGLSWNQQVTQMALWAIMAAPLFMSNDLRHISPQAKALLQDKDVIAINQDPLGKQGYQLRQGDNFEVWERPLSGLAWAVAMINRQEIGGPRSYTIAVASLGKGVACNPACFITQLLPVKRKLGFYEWTSRLRSHINPTGTVLLQLENTMQMSLKDLL | 3.0 |  | 3 ± 0.2 |  |  | 1159 ± 74 | BLD (“BLD” indicates that the mean α-Gal A activity was below the limit of detection (<142 nmol/mg/hr))
8 | G150E (protein) MQLRNPELHLGCALALRFLALVSWDIPGARALDNGLARTPTMGWLHWERFMCNLDCQEEPDSCISEKLFMEMAELMVSEGWKDAGYEYLCIDDCWMAPQRDSEGRLQADPQRFPHGIRQLANYVHSKGLKLGIYADVGNKTCAGFPGSFEYYDIDAQTFADWGVDLLKFDGCYCDSLENLADGYKHMSLALNRTGRSIVYSCEWPLYMWPFQKPNYTEIRQYCNHWRNFADIDDSWKSIKSILDWTSFNQERIVDVAGPGGWNDPDMLVIGNFGLSWNQQVTQMALWAIMAAPLFMSNDLRHISPQAKALLQDKDVIAINQDPLGKQGYQLRQGDNFEVWERPLSGLAWAVAMINRQEIGGPRSYTIAVASLGKGVACNPACFITQLLPVKRKLGFYEWTSRLRSHINPTGTVLLQLENTMQMSLKDLL | 12.3 | 1.2 | 73.8 ± 7 | 61.5 ± 6.6 | 18804 ± 1070 | 22710 ± 1059 | 
9 | S148G (protein) MQLRNPELHLGCALALRFLALVSWDIPGARALDNGLARTPTMGWLHWERFMCNLDCQEEPDSCISEKLFMEMAELMVSEGWKDAGYEYLCIDDCWMAPQRDSEGRLQADPQRFPHGIRQLANYVHSKGLKLGIYADVGNKTCAGFPGGFGYYDIDAQTFADWGVDLLKFDGCYCDSLENLADGYKHMSLALNRTGRSIVYSCEWPLYMWPFQKPNYTEIRQYCNHWRNFADIDDSWKSIKSILDWTSFNQERIVDVAGPGGWNDPDMLVIGNFGLSWNQQVTQMALWAIMAAPLFMSNDLRHISPQAKALLQDKDVIAINQDPLGKQGYQLRQGDNFEVWERPLSGLAWAVAMINRQEIGGPRSYTIAVASLGKGVACNPACFITQLLPVKRKLGFYEWTSRLRSHINPTGTVLLQLENTMQMSLKDLL | 11.8 | 11.2 | 12.9 ± 1 | 1.1 ± 0.1 | 435 ± 55 | 4879 ± 263 | 
